In patent publication US20040009911A1, “Hepsin substrates and prodrugs” (IRM, LLC, priority 2002, published 2004):
ACC/ACMC = fluorogenic leaving group

Key:
[1] = target: T1, recombinant hepsin (Homo sapiens, UniProt P05981); assay: Activation of pro-uPA by hepsin, monitored with uPA substrate GTAR-acc; format: biochemical; set-up: made in house; conditions: 1 nM recombinant hepsin, 100 μM GTAR-acc; FIG. 10 (squares)
Procedure: To test whether hepsin is capable of activating pro-uPA (and thereby potentially initiating this proteolytic cascade), uPA was screened through a coumarin-based substrate library and a substrate was designed to monitor uPA proteolytic activity. The substrate designed to monitor uPA activity is Acetyl-Gly-Thr-Ala-Arg-[7-amino-4-carbomoylcoumarin] (GTAR-acc). 2 μM of pro-uPA was incubated with 1 nM of recombinant hepsin and 100 μM of GTAR-acc.
Target sequence in this assay (P05981 whole entry): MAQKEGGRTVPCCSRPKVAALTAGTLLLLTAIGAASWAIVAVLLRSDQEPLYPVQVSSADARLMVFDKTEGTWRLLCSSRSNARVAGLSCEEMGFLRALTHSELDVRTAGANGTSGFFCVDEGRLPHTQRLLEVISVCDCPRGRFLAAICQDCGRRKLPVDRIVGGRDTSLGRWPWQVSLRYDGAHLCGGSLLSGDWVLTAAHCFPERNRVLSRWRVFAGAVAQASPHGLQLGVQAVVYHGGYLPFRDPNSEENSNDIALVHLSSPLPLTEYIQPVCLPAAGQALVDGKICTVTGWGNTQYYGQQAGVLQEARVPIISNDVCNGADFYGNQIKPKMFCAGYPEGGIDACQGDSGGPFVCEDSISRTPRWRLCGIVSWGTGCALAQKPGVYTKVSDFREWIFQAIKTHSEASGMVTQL

[2] = target: T1, recombinant hepsin; assay: Cleavage of fluorogenic tetrapeptide substrates by recombinant hepsin expressed in insect cells; format: biochemical; set-up: Hep136 (covering the prodomain and the catalytic domain); amino acids 46-417; honeybee melittin secretion signal (Mel) (N); made in house; host or cells: SP9 (Sf9) insect cells, baculovirus, pFastBac1; conditions: with and without a histidine tag
Procedure: SP9 cells were infected with recombinant virus at a MOI of 5-10 and the activity of hepsin in the supernatant was monitored by the hydrolysis of a fluorogenic peptide, KRLR-ACC. […] To determine the optimal expression time, activity was monitored for 72 hours after infection.
The activity of hepsin expressed and purified as described above was tested using the following substrates, which were synthesized based on the substrate specificity profile from the positional scanning libraries described above: Acetyl-Pro-Arg-Leu-Arg-ACC/ACMC and Acetyl-Lys-Arg-Leu-Arg-ACC/ACMC.
Target sequence in this assay (P05981 46-417): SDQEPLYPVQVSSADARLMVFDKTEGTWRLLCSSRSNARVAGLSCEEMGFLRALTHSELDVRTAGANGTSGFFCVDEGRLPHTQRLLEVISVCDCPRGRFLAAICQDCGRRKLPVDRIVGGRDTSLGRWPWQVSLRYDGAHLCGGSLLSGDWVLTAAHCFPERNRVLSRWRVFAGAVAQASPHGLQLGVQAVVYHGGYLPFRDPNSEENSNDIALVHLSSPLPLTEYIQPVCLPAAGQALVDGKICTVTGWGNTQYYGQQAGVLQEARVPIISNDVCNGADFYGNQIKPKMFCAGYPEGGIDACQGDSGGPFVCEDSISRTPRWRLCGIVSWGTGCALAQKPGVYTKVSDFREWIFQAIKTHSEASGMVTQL

Substance | cleavage of GTAR-acc by hepsin [1] | cleavage by recombinant hepsin [2]
Acetyl-Gly-Thr-Ala-Arg-[7-amino-4-carbomoylcoumarin] (Ac-GTAR-{7‑amino‑4‑carbamoylcoumarin}) [GTAR-acc] | only marginally cleaves | 
Acetyl-Lys-Arg-Leu-Arg-ACC/ACMC (Ac-KRLR-{ACC/ACMC}; also: C-terminal ACC/ACMC fluorophore) [N-acetyl tetrapeptide hepsin substrate with C-terminal coumarin fluorophore (ACC or ACMC)] |  | efficiently cleaved
Acetyl-Pro-Arg-Leu-Arg-ACC/ACMC (Ac-PRLR-{ACC/ACMC}; also: C-terminal ACC/ACMC fluorophore) [N-acetyl tetrapeptide hepsin substrate with C-terminal coumarin fluorophore (ACC or ACMC)] |  | efficiently cleaved
